Test results taken from patent US20090131309A1, “ICA512 COUPLES INSULIN SECRETION AND GENE EXPRESSION IN BETA-CELLS” (Technische Universität Dresden Medizinizche Fakultät Carl …, priority 2004, published 2009).

Key:
ICA512 mRNA = ICA512 mRNA by real-time PCR in INS-1 cells; format: cell-based, rat; conditions: transfected INS-1 cells vs cells expressing GFP alone
Procedure: PCR and real-time PCR. Cytosolic mRNA was isolated with the Oligotex Direct mRNA kit (Qiagen) according to the manufacturer's protocol. PolyA^+-enriched RNA was reverse transcribed with specific antisense primers for ICA512 and β-actin as described^8. Amplification of a 200 bp fragment flanking the GLE in the rat insulin1 (rINS1) gene promoter by PCR and real-time PCR was performed with the following primers: sense [NT], antisense [NT]. Amplification of ICA512 and β-actin was performed as described^16.

[1] = test system: GLE of the rat insulin I gene promoter; experiment: Chromatin immunoprecipitation, GLE of rat insulin I gene promoter; format: binding; conditions: stable INS-1 cells, anti-GFP antibodies vs control IgG
pro-ICA512 = experiment: Immunoblot for pro-ICA512 and ICA512-TMF in INS-1 cells; format: cell-based, rat
Procedure: (§1) Culture of INS-1 cells. INS-1 cells were grown as described^27. In some instances cells were pre-incubated for 1 hour in resting buffer (0 mM glucose, 5 mM KCl) and then for 2 or 6 hours in resting or stimulating (25 mM glucose, 55 mM KCl) buffers as described^7. Calpeptin (Calbiochem) was added in the last 15 minutes of the pre-incubation, and then for the entire following period before cells were harvested. Cells were stimulated with 20 nM human growth hormone (hGH) for 20 minutes following 18 hours incubation in low serum medium (LSM) containing RPMI-1640, 11 mM glucose, 0.5% FBS 25 mM HEPES, 1% penicillin-streptomycin and 0.05 mM β-mercaptoethanol. After washing, cells were either harvested or incubated in LSM for 6 additional hours. For immunoprecipitation cells were collected 1 hour after stimulation with hGH.
Cell extracts and western blotting. INS-1 cells and pancreatic islets were harvested at 4° C. in RIPA buffer [50 mM Tris-HCl at pH 8.0, 150 mM NaCl, 1% NP-40, 0.1% SDS, 0.5% sodium deoxycholate, and 1× protease inhibitor cocktail (Sigma)] to obtain total extracts. Insoluble material was removed by centrifugation. Cytosolic and nuclear extracts were prepared using the NE-PER Nuclear and Cytoplasmic Extraction Reagents (Pierce). Proteins were separated by 8-10% SDS-PAGE and immunoblotted with the following antibodies: mouse monoclonals anti-ICA512^7, anti-STAT5 (Santa Cruz), anti-γ-tubulin and anti-HA (Sigma); rabbit anti-PY-STAT5 and anti-STAT3 (Cell Signaling); affinity purified goat anti-GFP IgGs. Chemiluminescence was developed using the Supersignal West Pico or Femto kits (Pierce) and detected with a LAS 3000 Bioimaging System (Fuji). Protein signals were quantified with the Image Gauge v3.45 software (Fuji). Half the amount of nuclear extract proteins were immunoblotted relative to total and cytosolic extract proteins.

STAT5 = experiment: Firefly luciferase reporter assay for STAT activity (8GLE-CAS-FL) in INS-1 cells; format: cell-based, rat; conditions: co-transfected INS-1 cells, hGH stimulation
Procedure: Firefly luciferase assays. INS-1 cells were co-transfected with 8GLE-CAS-FL and one or two of the following plasmids: pEGFP, ICA512-CCF-GFP, ICA512-CCF(K/A^754)-GFP and PIASy-GFP. Two days after transfection, cells were incubated in low serum medium for 18 hrs, then stimulated with 20 nM hGH for 20 minutes, and finally left in resting buffer for 6 additional hours. Cells were harvested in 500 μl lysis reagent for luciferase assays (Promega) and 10 μl were used for measurement of luciferase activity in a Berthold luminometer. Each sample was performed in triplicate and the data represent the mean of at least 2 independent experiments.

INS-1 cells = experiment: Uridine incorporation in INS-1 cells; format: cell-based, rat; conditions: relative to GFP-transfected INS-1 cells
STAT5b [2] = target: T1, STAT5b (Rattus norvegicus, UniProt P52632); experiment: Co-immunoprecipitation with anti-GFP antibodies from INS-1 extracts; format: binding; conditions: hGH-stimulated INS-1 cells
T1 construct: endogenous in cells; host or cells: INS-1 cells transiently transfected with ICA512-CCF-GFP
T1 sequence (P52632 1-786): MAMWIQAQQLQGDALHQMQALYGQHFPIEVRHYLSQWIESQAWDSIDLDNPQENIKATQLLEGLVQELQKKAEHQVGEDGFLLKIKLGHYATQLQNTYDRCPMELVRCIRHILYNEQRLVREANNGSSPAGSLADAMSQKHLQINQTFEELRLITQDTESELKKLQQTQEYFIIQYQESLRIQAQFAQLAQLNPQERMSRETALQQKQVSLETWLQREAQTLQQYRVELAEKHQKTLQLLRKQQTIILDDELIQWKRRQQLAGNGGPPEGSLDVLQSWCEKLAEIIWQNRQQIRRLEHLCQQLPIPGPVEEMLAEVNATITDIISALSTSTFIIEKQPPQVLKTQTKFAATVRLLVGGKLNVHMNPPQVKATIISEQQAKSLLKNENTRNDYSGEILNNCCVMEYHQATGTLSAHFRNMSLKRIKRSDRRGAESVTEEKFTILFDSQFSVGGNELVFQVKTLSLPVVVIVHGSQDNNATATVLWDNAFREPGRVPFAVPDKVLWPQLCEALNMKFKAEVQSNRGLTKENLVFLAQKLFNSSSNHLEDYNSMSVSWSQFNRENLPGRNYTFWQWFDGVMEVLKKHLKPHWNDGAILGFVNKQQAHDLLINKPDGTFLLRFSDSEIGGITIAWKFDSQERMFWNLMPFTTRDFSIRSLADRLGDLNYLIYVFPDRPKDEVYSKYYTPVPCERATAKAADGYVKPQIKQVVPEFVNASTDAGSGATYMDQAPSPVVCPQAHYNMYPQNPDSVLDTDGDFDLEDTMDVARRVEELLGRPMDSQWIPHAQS
Procedure: Immunoprecipitation. INS-1 cells were transiently transfected With one or more of the following constructs: GFP, ICA512-CCF-GFP, ICA512-CCF(K/A^754)-GFP, SUMO-1 and HA-SUMO-1. Anti-GFP IgGs were used for immunoprecipitations from total or cytosolic extracts. Immunoprecipitates were immunoblotted with anti-STAT5b, anti-PY-STAT5, anti-GFP or anti-HA antibodies. 600 μg and 200 μg protein were used as starting material for immunopreciptation of sumoylated ICA512 and STAT5, respectively.

Insulin mRNA = Insulin mRNA levels by real-time PCR in INS-1 cells; format: cell-based, rat
Procedure: Time-course stimulation of INS-1 cells. INS-1 ceils were incubated for 1 hr. in resting buffer (2.8 mM glucose and 5 mM KCl), then for 6 hrs. in resting or stimulating buffer, with or without 40 μM calpeptin, and then again in resting buffer for up to 24 hrs. Total RNA for real-time PCR was collected at time 0, 2 and 6 hrs. during stimulation and at 2, 6, 12 and 24 hrs. during the following resting period.
Real-time PCR. Total RNA from INS-1 cells was isolated with Trizol (Invitrogen, Karlsruhe, Germany) according to the manufacturer's protocol. 1 μg of total RNA was used for the reverse transcriptase reaction, with 2 μM specific antisense primers for […] and insulin, as described (31). mRNA expression was measured by quantitative real-time PCR using the Brilliant SYBR Green QPCR (Stratagene, La Jolla, Calif.) with an Mx4000 Multiplex Quantitative Real Time PCR System (Stratagene).

GLE of rat insulin 1 = experiment: EMSA with biotinylated GLE oligonucleotide of rat insulin 1 promoter; format: binding; conditions: nuclear extracts of INS-1 cells expressing increasing amount of construct
STAT5b [3] = experiment: Nuclear levels of STAT5b, PY-STAT5 and STAT3 in INS-1 cells (immunoblot); format: cell-based, rat
Procedure: as §1
Cell extracts and western blotting. INS-1 cells and pancreatic islets were harvested at 4° C. in RIPA buffer [50 mM Tris-HCl at pH 8.0, 150 mM NaCl, 1% NP-40, 0.1% SDS, 0.5% sodium deoxycholate, and 1× protease inhibitor cocktail (Sigma)] to obtain total extracts. Insoluble material was removed by centrifugation. […] Chemiluminescence was developed using the Supersignal West Pico or Femto kits (Pierce) and detected with a LAS 3000 Bioimaging System (Fuji). Protein signals were quantified with the Image Gauge v3.45 software (Fuji). […]

B1: ICA512-CCF-GFP: ICA512 cytoplasmic fragment generated by μ-calpain, residues 659-979, fused at its C-terminus with GFP (protein)
chain: SQFSDAAQASPSSHSSTPSWCEEPAQANMDISTGHMILAYMEDHLRNRDRLAKEWQALCAYQAEPNTCATAQGEGNIKKNRHPDFLPYDHARIKLKVESSPSRSDYINASPIIEHDPRMPAYIATQGPLSHTIADFWQMVWESGCTVIVMLTPLVEDGVKQCDRYWPDEGASLYHVYEVNLVSEHIWCEDFLVRSFYLKNVQTQETRTLTQFHFLSWPAEGTPASTRPLLDFRRKVNKCYRGRSCPIIVHCSDGAGRTGTYILIDMVLNRMAKGVKEIDIAATLEHVRDQRPGLVRSKDQFEFALTAVAEEVNAILKALPQ
modifications: left off: large carriers
notes: ICA512 cytoplasmic fragment generated by μ-calpain, residues 659-979, fused at its C-terminus with GFP
ICA512 mRNA increase (ICA512 mRNA): 81%
co-immunoprecipitation of GLE of the rat insulin I gene promoter [1]: co-immunoprecipitated with anti-GFP antibodies
ICA512-TMF levels (pro-ICA512; transfected INS-1 cells vs GFP): also increased
pro-ICA512 increase (pro-ICA512; transfected INS-1 cells vs cells expressing GFP alone): 40%
STAT5 transcription activity (8GLE-CAS-FL luciferase) (STAT5): partially restored
total incorporation of 3H-uridine (INS-1 cells): 270%
co-immunoprecipitation of STAT5b and PY-STAT5 (STAT5b [2]): co-immunoprecipitated
insulin mRNA levels vs amount of construct expressed (Insulin mRNA; 0.5-4 μg construct, 4 days in culture with 11 mM glucose): correlation between the increased expression of ICA512 (659-979)-GFP and the enhancement of insulin mRNA levels
Insulin mRNA increase (Insulin mRNA; resting INS-1 cells transiently transfected, vs electroporated cells): 93%
further increase of insulin mRNA by stimulation (Insulin mRNA; stimulated transfected INS-1 cells): 60%
binding of a factor, conceivably STAT5b, to the GLE oligonucleotide (GLE of rat insulin 1): positive correlation
STAT5b and STAT3 in the nucleus (STAT5b [3]; INS-1 cells transfected with increasing amount of construct): dose-dependent increase
Nuclear STAT5b and nuclear PY-STAT5 (STAT5b [3]; hGH 20 nM 20 min, ICA512-CCF-GFP vs GFP cells, AD/DA mutant vs ICA512-CCF-GFP cells): clearly increased
